Consider two molecules from patent US20200378979, “FLUORESCENT MEROCYANINE DYES, ASSOCIATED CONJUGATES AND METHODS” (University of Guelph, published 2020).

Data set [1] addresses T1, thrombin (Bos taurus, UniProt P00735;P00735 P00735:318-366,P00735:367-625). In words: FP; K+ phosphate buffer pH 7.0, 20 C; Table 6 lists 1.5±0.3 uM. The following applies: tags: bovine thrombin dry powder, Sigma Aldrich; label: 5'-4QI; antiparallel G4.
Data set [2] deals with T1, thrombin. In words: FP; K+ phosphate buffer pH 7.0; duplex to G4 exchange, 36% fluorescence increase. The following applies: tags: bovine thrombin dry powder, Sigma Aldrich; label: 5'-4QI; partial duplex with 9-mer complement, 3' ssDNA.

For orientation: Kd means the free concentration of one partner at which half of the binding sites on the other are occupied at equilibrium, for simple one-to-one binding. Read a high Kd as lower affinity. In data set [1], GGTTGGTGTGGTTGGT (structured_DNA, 5'-4QI merocyanine end-label; extra 3' dT) [4QI-TBA-E] yielded a Kd of 1100 nM.

B1: 4QI-TBA-E:TBA-C9 duplex (dsDNA)
DNA 1: GGTTGGTGTGGTTGGT
DNA 2: ACACCAACC
modifications: 5'-4QI on aptamer strand; extra 3' dT
B1: binding in data set [2] was put at a Kd of 1300 nM.
